# Earlier results as cited in publication PMC12053642, “Oral PRI-002 treatment in patients with MCI or mild AD: a randomized, double-blind phase 1b trial” (Nature Communications, 2025).
# B1: lecanemab: anti-amyloid therapeutic antibody, claimed to preferentially target soluble Aβ protofibrils (antibody, chains of the INN, looked up, V domains shown)
# VH: EVQLVESGGGLVQPGGSLRLSCSASGFTFSSFGMHWVRQAPGKGLEWVAYISSGSSTIYYGDTVKGRFTISRDNAKNSLFLQMSSLRAEDTAVYYCAREGGYYYGRSYYTMDYWGQGTTVTVSS
# VL: DVVMTQSPLSLPVTPGAPASISCRSSQSIVHSNGNTYLEWYLQKPGQSPKLLIYKVSNRFSGVPDRFSGSGSGTDFTLRISRVEAEDVGIYYCFQGSHVPPTFGPGTKLEIK
# Tested on: early AD patients
# Design: ADAS-cog: dose or concentration left out as unconfirmed
# Conditions: cited from earlier work; for deceleration of progression measured by CDR-SB versus placebo: over 18 months, on average
# Source text: After two decades of setbacks, the United States Food and Drug Administration (USFDA) full approvals for lecanemab[1] and donanemab[2] presents the beginning of a new decade for AD patients with several more drug candidates holding promise for marketing authorisation in the foreseeable future.
Molecule,"ADAS-Cog13 and CDR-SB (700 mg for the first 3 doses and 1400 mg thereafter i.v. every 4 weeks, after 12 weeks of treatment)",deceleration of progression measured by CDR-SB versus placebo,"slowed decline on measures of cognition and function than placebo (early AD, at 18 months (CDR-SB, ADAS-cog14, ADCOMS, ADCS-MCI-ADL))","ADAS-cog (from week 12, most prominent at 6 months)"
donanemab: anti-amyloid therapeutic antibody [reference compound],significant improvement,up to 36%,,
B1,,up to 36%,27%,symptomatic improvement
